Source: patent publication US12018066 (TRIAD NATIONAL SECURITY, dated 2024)
Like-named read-outs stand apart in the source and are kept apart here.

Assays:
[1] = molecular target: T1, SARS-CoV-2 spike protein receptor binding domain (RBD2) (SARS-CoV-2, UniProt P0DTC2 319-537); experiment: SPR, minibodies
[2] = molecular target: T1, SARS-CoV-2 spike protein receptor …; experiment: SPR, immobilized antibody, RBD injected, 1:1 fit
[3] = molecular target: T1, SARS-CoV-2 spike protein receptor …
[4] = molecular target: T1, SARS-CoV-2 spike protein receptor …; experiment: flow cytometry, yeast-displayed scFv
[5] = molecular target: SARS-CoV spike protein receptor binding domain (RBD1) (SARS-CoV, UniProt P59594 306-527); experiment: flow cytometry (yeast scFv) / minibody ELISA, FIGS. 7A-C
[6] = molecular target: T1, SARS-CoV-2 spike protein receptor …; experiment: flow cytometry, yeast-displayed scFv, titration of biotinylated antigen
[7] = molecular target: T1, SARS-CoV-2 spike protein receptor …; experiment: SPR

Binder	Kd [1]	Kd [2]	Kd [3]	Kd [4]	binding result [5]	Kd [6]	Kd [7]
R26 minibody (scFv-Fc) (Fc fusion) SYELTQPPSVSVAPGQTATITCGGKNIESKSVHWYQQKPGQAPVLVVSDDTDRASGIPERFSGSNSGGAATLTISRVEAGDEADYYCQVWDSPSDHYVFGPGTKLTVLSGGSTITSYNVYYTKLSSSGTQVQLVESGGGVVQPGRSLRLSCAASGFTFSSYAMHWVRQAPGKGLEWVAVISYDGSNKYYADSVKGRFTISRDKAKNTLYLQMNSLRGEDTAVYYCARELSYYDSSGYLRGDWYFDLWGRGTLVTVSS	900 nM	888 nM					
E08 scFv (scFv) scFv: SYVLTQPPSVSVAPGKTARITCGGNNIGWKSVHWYQQKPGQAPVLVVYDDSDRPSGIPERFSGSNSGNTATLTISRVEAGDEADYYCQVWDSSSDLVVFGGGTKLTVLSGGSTITSYNVYYTKLSSSGTQVQLVQSGAEVKKPGSSVKVSCKASGGTFSSYAISWVRQAPGQGLEWMGGIIPIFGTANYAQKFQGRVTITADESTSTAYMELSSLRSEDTAVYYCARASGRWLQFWHYYGMDVWGQGTTVTVSS			13.9 nM	13.9 nM	binds	13.9 nM	
E08 minibody (scFv-Fc) (Fc fusion) SYVLTQPPSVSVAPGKTARITCGGNNIGWKSVHWYQQKPGQAPVLVVYDDSDRPSGIPERFSGSNSGNTATLTISRVEAGDEADYYCQVWDSSSDLVVFGGGTKLTVLSGGSTITSYNVYYTKLSSSGTQVQLVQSGAEVKKPGSSVKVSCKASGGTFSSYAISWVRQAPGQGLEWMGGIIPIFGTANYAQKFQGRVTITADESTSTAYMELSSLRSEDTAVYYCARASGRWLQFWHYYGMDVWGQGTTVTVSS	4 nM	3.6 nM					3.6 nM
